Article PMC4948679
Several values for one entry are separate records, joined by “and”; a condition that tells them apart may be missing. Identical values can stand only once.

Target: Ab2/3H6, murine/wild-type anti-idiotypic antibody (wt3H6) (mouse (developed from mouse hybridoma))
Experiment: BLI

B1: broadly neutralizing anti-HIV-1 antibody 2F5 (antibody, V domains shown)
VH: RITLKESGPPLVKPTQTLTLTCSFSGFSLSDFGVGVGWIRQPPGKALEWLAIIYSDDDKRYSPSLNTRLTITKDTSKNQVVLVMTRVSPVDTATYFCAHRRGPTTLFGVPIARGPVNAMDVWGQGITVTISS
VL: ALQLTQSPSSLSASVGDRITITCRASQGVTSALAWYRQKPGSPPQLLIYDASSLESGVPSRFSGSGSGTEFTLTISTLRPEDFATYYCQQLHFYPHTFGGGTRVDVR
For B1, the response level was 3.5 nm and 3.4 nm.
